The assay has as its target T1, extracellular portion of CD98 (212-630 of CD98hc).
T1 chain: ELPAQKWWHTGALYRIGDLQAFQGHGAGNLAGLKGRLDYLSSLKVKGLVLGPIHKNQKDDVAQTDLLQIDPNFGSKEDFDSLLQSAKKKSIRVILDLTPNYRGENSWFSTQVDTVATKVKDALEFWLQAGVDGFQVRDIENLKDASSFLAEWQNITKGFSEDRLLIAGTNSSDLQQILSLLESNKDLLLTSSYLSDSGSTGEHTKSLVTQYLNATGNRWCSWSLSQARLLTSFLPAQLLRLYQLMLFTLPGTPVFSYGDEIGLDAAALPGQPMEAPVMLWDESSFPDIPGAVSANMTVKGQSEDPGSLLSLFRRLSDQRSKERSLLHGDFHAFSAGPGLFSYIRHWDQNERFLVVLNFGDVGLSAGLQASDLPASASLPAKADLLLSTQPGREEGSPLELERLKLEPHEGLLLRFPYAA
Kind of assay: SPR. The note with it: chain shown with the change;; parent: est. 24; read off a plot.

B1: domain 1 of CD147, P35613-2 K63A (protein)
chain: AAGTVFTTVEDLGSKILLTCSLNDSATEVTGHRWLKGGVVLAEDALPGQKTEFKVDSDDQWGEYSCVFLPEPMGTANIQLHGPPRVKAVKSSEHINEGETAMLVCKSESVPPVTDWAWYKITDSEDKALMNGSESRFFVSSSQGRSELHIENLNMEADPGQYRCNGTSSKGSDQAIITLRVRSH
Consider B1, for which the response was 3.5 RU.
